Data: article PMC7983153 (The Biochemical journal, 2018)
Blank lines part the entries; values can stand above or below the compound they belong to.

Legend:
MtTSPS = MtTSPS (Medicago truncatula, UniProt G7K2D1); assay: X-ray crystallography, […] Å; settings: co-crystallization, 10-molar excess of ligand, pH 6.5; polyamine-binding groove
[1] = molecular target: MtTSPS-R37E mutant (Medicago truncatula); assay: SEC
[2] = molecular target: thermospermine synthase from Medicago truncatula (MtTSPS) (Medicago truncatula); assay: SAXS
[3] = molecular target: thermospermine synthase from Medicago truncatula (MtTSPS) (Medicago truncatula); assay: crystal structure

Compound: NCCCCNCCCNCCCN [TSPM, thermospermine]
X-ray crystallography, 1.65 Å (MtTSPS): TSPM in the MtTSPS-TSPM complex is bound with aminopropyl group pointing outside the pocket

stoichiometry N [1]: 2
Compound: MtTSPS-R37E mutant (enzyme)

stoichiometry N [2]: 4
stoichiometry N [3]: 4
Compound: thermospermine synthase from Medicago truncatula (MtTSPS) (enzyme)
